In patent publication US20220289850 (published 2022) one finds Kd data, which are given here for one molecule.

This assay has as its target T1, human integrin avb8 (human).
T1 chain 1: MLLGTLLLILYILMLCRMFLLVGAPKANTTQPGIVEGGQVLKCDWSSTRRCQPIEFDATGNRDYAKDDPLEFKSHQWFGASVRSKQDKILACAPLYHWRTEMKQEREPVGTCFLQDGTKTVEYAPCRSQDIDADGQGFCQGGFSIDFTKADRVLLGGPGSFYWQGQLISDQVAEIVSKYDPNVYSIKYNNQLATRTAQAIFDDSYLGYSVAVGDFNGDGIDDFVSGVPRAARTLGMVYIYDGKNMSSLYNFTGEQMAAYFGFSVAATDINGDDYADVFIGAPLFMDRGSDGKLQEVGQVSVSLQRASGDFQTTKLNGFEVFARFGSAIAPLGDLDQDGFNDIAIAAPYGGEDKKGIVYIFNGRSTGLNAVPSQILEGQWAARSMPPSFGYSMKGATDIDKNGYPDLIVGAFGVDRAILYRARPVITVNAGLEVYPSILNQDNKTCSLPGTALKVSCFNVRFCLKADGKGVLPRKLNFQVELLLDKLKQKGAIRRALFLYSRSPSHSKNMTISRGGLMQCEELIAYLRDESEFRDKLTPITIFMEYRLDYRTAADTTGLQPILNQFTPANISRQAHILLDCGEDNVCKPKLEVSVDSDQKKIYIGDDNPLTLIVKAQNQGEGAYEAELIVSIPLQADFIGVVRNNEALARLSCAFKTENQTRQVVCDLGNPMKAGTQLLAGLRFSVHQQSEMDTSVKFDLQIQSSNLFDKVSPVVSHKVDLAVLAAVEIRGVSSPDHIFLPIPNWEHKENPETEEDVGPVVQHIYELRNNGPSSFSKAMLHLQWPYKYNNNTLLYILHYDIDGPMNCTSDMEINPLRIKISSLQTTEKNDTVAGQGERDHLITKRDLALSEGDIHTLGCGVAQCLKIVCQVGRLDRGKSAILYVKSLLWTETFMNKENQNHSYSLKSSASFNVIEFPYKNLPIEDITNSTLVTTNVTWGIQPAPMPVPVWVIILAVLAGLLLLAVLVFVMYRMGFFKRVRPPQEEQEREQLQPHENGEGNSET
T1 chain 2: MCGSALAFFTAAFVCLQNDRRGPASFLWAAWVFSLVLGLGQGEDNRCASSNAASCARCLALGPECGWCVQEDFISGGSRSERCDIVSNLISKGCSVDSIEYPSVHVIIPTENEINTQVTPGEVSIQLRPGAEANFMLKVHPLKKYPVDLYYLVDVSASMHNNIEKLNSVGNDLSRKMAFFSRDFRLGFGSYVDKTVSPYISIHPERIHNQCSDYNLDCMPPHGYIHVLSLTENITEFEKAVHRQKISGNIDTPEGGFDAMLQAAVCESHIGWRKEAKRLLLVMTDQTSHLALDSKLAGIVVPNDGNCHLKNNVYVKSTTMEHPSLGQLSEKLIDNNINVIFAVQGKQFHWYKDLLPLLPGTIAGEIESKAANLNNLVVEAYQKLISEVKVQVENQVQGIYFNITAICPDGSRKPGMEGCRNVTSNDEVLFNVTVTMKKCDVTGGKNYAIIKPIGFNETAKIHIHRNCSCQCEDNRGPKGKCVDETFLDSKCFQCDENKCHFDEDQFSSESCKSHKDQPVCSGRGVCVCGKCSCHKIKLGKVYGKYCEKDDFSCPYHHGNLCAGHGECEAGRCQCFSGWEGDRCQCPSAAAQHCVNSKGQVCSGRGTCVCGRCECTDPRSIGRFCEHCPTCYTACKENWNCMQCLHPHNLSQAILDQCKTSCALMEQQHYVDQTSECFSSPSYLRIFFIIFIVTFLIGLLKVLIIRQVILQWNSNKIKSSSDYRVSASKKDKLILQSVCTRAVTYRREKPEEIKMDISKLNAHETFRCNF
As to the kind of experiment: SPR. On the technique in general: In SPR one partner is held on a chip, and binding of the other changes the refractive index at the surface.

B1: ADWA11 2.4 Fab (antibody, V domains shown)
VH: EVQLVESGGGLVQPGGSLRLSCAASGFNIKDYYMNWVRQAPGKGLEWVGWIDPDQGNTIYEPKFQGRFTISADTSKNSAYLQMNSLRAEDTAVYYCARRLLMDYWGQGTLVTVSS
VL: DIQMTQSPSSLSASVGDRVTITCRSTKSLSHFNGNTYLFWYQQKPGKAPKRLIYYMSSLASGVPSRFSGSGSGTDFTLTISSLQPEDFATYYCQQSLEYPFTFGGGTKVEIK
In the case of B1, the Kd (as a rule, the constant that tells how readily two partners part at equilibrium) is under 0.1 nM.
